Measured values from patent US20130158098A1, “Alkenyl Substituted Cycloaliphatic Compounds as Chemical Inducers of Proximity” (priority 2010, published 2013).

Target: VP16-PYLcs (VP16 transactivation domain fused to PYL1 aa 33-209) (herpes simplex virus; Arabidopsis thaliana) (UniProt Q8VZS8)
Assay: cell-based or functional assay

Chain of VP16-PYLcs (VP16 transactivation domain fused to PYL1 aa 33-209) (herpes simplex virus; Arabidopsis thaliana) (Q8VZS8 33-209 limits assumed): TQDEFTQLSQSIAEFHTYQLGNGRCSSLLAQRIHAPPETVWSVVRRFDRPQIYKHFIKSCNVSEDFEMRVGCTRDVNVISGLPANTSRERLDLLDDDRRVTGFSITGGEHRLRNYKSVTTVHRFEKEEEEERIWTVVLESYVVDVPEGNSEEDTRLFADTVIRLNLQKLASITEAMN

**Q.** For “Gal4 DBD-ABIcs, wild type (Gal4 DNA binding domain fused to ABI1 aa 126-423) (from UniProt P04386 1-147)”, which luciferase production (UAS-luciferase reporter, murine ES, NIH 3T3 and HEK 293T cells) is on record?
**A.** 1000 fold
